Measurements reported in article PMC4888784.

Biological target: PIN1 (UniProt Q13526)
Test: His-tagged peptide binding to GST-PIN1
Details: reference: nonphosphorylated S203/P204 peptide; sites S203

- binding against the reference: stronger
Substance: PGK1 (phosphoglycerate kinase 1) oligopeptide containing S203/P204, borders not given (from UniProt P00558) pS203/P204 peptide
